Reference: PMC12487865

Target: FGFR1 (UniProt P16092)
Assay: co-IP, Nf2-Flag mutants with FGFR1-HA
Details: reference: wild-type Nf2

Substance | binding against the reference (sites S315) | binding against the reference (sites S518)
Nf2 (Merlin) (from UniProt P46662) S315A | lost | –
Nf2 (Merlin) (from UniProt P46662) S518A | – | lost
